What all share (conditions): blunt
Series [1] deals with T1, Nt.BspD6I (UniProt A3FEV7 1-604).
T1 sequence: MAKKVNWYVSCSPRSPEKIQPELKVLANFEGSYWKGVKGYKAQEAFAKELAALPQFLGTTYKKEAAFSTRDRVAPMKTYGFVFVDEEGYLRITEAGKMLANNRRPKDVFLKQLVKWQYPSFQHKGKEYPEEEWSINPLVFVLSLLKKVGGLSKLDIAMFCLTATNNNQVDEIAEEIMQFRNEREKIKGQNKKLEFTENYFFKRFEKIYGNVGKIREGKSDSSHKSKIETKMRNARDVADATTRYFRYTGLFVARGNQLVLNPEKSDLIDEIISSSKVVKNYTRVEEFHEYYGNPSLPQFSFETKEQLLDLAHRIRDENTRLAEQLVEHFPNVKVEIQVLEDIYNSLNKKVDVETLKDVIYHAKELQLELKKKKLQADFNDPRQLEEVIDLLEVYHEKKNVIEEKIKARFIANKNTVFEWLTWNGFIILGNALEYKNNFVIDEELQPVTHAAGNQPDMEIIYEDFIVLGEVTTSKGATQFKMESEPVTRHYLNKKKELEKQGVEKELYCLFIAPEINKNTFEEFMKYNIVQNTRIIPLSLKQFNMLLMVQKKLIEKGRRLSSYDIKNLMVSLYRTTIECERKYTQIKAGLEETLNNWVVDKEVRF
Kind of series: stopped-flow Trp fluorescence; 10 mM Ca2+; kobs k1 261 s-1, k2 6.2 s-1; Stopped-flow, 37 °C, 10 mM CaCl2 or 10 mM MgCl2 (or 0.4 mM EDTA without divalent metal); 1 µM enzyme (Trp) or 1 µM DNA (FRET); buffer, salt and pH not in the supplied text.

Series [2] deals with T1, Nt.BspD6I. Kind of series: stopped-flow Trp fluorescence; 10 mM Mg2+; kobs k1 490 s-1, k2 128 s-1; Stopped-flow, 37 °C, 10 mM CaCl2 or 10 mM MgCl2 (or 0.4 mM EDTA without divalent metal); 1 µM enzyme (Trp) or 1 µM DNA (FRET); buffer, salt and pH not in the supplied text.
The target in series [3] is T1, Nt.BspD6I. Kind of series: stopped-flow Trp fluorescence; 10 mM Ca2+; Stopped-flow, 37 °C, 10 mM CaCl2 or 10 mM MgCl2 (or 0.4 mM EDTA without divalent metal); 1 µM enzyme (Trp) or 1 µM DNA (FRET); buffer, salt and pH not in the supplied text.
Series [4] addresses T1, Nt.BspD6I. Kind of series: stopped-flow Trp fluorescence; 10 mM Mg2+; Stopped-flow, 37 °C, 10 mM CaCl2 or 10 mM MgCl2 (or 0.4 mM EDTA without divalent metal); 1 µM enzyme (Trp) or 1 µM DNA (FRET); buffer, salt and pH not in the supplied text.
Series [5] addresses T1, Nt.BspD6I. The series can be described thus: stopped-flow Trp fluorescence; 10 mM Mg2+; kobs k1 126 s-1, k2 7.0 s-1; Stopped-flow, 37 °C, 10 mM CaCl2 or 10 mM MgCl2 (or 0.4 mM EDTA without divalent metal); 1 µM enzyme (Trp) or 1 µM DNA (FRET); buffer, salt and pH not in the supplied text.
For series [6], the target named is T1, Nt.BspD6I. The series can be described thus: stopped-flow Trp fluorescence; 10 mM Mg2+; kobs k1 145 s-1, k2 10.0 s-1; Stopped-flow, 37 °C, 10 mM CaCl2 or 10 mM MgCl2 (or 0.4 mM EDTA without divalent metal); 1 µM enzyme (Trp) or 1 µM DNA (FRET); buffer, salt and pH not in the supplied text.
Series [7] has as its target T1, Nt.BspD6I. The series can be described thus: stopped-flow Trp fluorescence; 10 mM Mg2+; kobs k1 232 s-1, k2 21 s-1; Stopped-flow, 37 °C, 10 mM CaCl2 or 10 mM MgCl2 (or 0.4 mM EDTA without divalent metal); 1 µM enzyme (Trp) or 1 µM DNA (FRET); buffer, salt and pH not in the supplied text.
The target of series [8] is T1, Nt.BspD6I. The series can be described thus: stopped-flow Trp fluorescence; 0.4 mM EDTA, no divalent metal; Stopped-flow, 37 °C, 10 mM CaCl2 or 10 mM MgCl2 (or 0.4 mM EDTA without divalent metal); 1 µM enzyme (Trp) or 1 µM DNA (FRET); buffer, salt and pH not in the supplied text.

In general, Kd refers to the free concentration of one partner at which half of the binding sites on the other are occupied at equilibrium, for simple one-to-one binding.

B1: II-19 (dsDNA)
DNA 1: GGTCTCGAGTCTTCTCAAG
DNA 2: CTTGAGAAGACTCGAGACC
In the case of B1, the binding result in series [1] is recorded as “binds”.

B2: I-17 (dsDNA)
DNA 1: GGTCTCGAGTCTTCTCA
DNA 2: TGAGAAGACTCGAGACC
Turning to B2, the binding result in series [2] was “binds”.

B3: VI-30N (dsDNA)
DNA 1: GTATGAAGCTAGAGCCAGGTTGGCAGCATC
DNA 2: GATGCTGCCAACCTGGCTCTAGCTTCATAC
For the molecule B3, the Kd was 0.06 ± 0.02 µM in series [3] and 0.07 ± 0.02 µM in series [4].

B4: V-26 (dsDNA)
DNA 1: CGTGGTCTCGAGTCTTCTCAAGGTAC
DNA 2: GTACCTTGAGAAGACTCGAGACCACG
On to B4, for which the binding result in series [5] was “binds”.

B5: IV-23 (dsDNA)
DNA 1: GGTCTCGAGTCTTCTCAAGGTAC
DNA 2: GTACCTTGAGAAGACTCGAGACC
For the molecule B5, in series [6], the binding result is given as “binds”.

B6: III-21 (dsDNA)
DNA 1: GGTCTCGAGTCTTCTCAAGGT
DNA 2: ACCTTGAGAAGACTCGAGACC
Turning to B6, in series [7], the binding result is on record as “binds”.

B7: VI-30 (dsDNA)
DNA 1: GCGTGGTCTCGAGTCTTCTCAAGGTACCTG
DNA 2: CAGGTACCTTGAGAAGACTCGAGACCACGC
On to B7, for which the equilibrium dissociation constant (Kd) in series [8] amounted to 0.013 ± 0.003 µM.

The values are drawn from PMC8533099, “Kinetic Analysis of the Interaction of Nicking Endonuclease BspD6I with DNA”.
